The target in the assay is Notch1(EGF1-36) (amino acids 20-1426) (human, UniProt P46531 20-1426, biotin, chemically at the N-terminus (EZ-Link Sulfo-NHS-Biotin)). The assay is described as follows: SPR.

These results are taken from paper PMC12216052 (2025).

A word on the Kd: it is the free concentration of one partner at which half of the binding sites on the other are occupied at equilibrium, for simple one-to-one binding.

Chain of Notch1(EGF1-36) (amino acids 20-1426) (P46531 20-1426): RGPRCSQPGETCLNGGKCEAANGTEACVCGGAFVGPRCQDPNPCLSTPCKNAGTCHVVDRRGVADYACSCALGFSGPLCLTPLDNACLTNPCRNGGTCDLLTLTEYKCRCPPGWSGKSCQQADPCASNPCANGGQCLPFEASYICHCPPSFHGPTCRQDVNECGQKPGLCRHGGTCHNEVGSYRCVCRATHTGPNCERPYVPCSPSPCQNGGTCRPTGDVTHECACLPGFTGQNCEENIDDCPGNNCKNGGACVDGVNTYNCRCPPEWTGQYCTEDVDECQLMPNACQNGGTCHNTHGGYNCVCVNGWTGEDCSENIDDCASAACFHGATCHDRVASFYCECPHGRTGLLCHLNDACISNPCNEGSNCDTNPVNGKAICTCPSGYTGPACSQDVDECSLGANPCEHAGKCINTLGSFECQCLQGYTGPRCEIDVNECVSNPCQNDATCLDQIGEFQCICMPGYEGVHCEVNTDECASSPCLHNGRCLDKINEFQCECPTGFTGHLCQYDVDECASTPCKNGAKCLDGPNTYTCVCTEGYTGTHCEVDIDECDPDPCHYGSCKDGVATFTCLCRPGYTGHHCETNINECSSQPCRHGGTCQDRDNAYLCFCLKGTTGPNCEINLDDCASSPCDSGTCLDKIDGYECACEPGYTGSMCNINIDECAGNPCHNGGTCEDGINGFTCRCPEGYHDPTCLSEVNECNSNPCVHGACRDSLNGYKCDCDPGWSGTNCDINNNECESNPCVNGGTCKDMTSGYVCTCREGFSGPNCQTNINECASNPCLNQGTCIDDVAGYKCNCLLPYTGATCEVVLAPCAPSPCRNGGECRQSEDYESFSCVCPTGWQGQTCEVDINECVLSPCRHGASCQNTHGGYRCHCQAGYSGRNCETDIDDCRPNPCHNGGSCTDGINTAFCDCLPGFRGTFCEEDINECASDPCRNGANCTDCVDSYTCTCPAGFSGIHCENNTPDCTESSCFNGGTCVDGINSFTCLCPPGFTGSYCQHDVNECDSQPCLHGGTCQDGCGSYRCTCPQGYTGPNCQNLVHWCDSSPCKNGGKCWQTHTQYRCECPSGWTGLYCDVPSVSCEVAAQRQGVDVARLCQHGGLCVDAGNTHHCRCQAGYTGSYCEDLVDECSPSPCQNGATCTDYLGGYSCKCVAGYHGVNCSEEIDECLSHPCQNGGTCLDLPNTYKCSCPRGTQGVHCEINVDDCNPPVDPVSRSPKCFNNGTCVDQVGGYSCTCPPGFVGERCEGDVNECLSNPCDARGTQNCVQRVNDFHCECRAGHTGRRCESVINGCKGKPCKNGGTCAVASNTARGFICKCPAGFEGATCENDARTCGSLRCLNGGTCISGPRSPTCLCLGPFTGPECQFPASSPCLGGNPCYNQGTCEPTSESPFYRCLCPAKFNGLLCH

B1: Human DLL4 (N-EGF5, amino acids 27-400) (domain or fragment)
chain: SGVFQLQLQEFINERGVLASGRPCEPGCRTFFRVCLKHFQAVVSPGPCTFGTVSTPVLGTNSFAVRDDSSGGGRNPLQLPFNFTWPGTFSLIIEAWHAPGDDLRPEALPPDALISKIAIQGSLAVGQNWLLDEQTSTLTRLRYSYRVICSDNYYGDNCSRLCKKRNDHFGHYVCQPDGNLSCLPGWTGEYCQQPICLSGCHEQNGYCSKPAECLCRPGWQGRLCNECIPHNGCRHGTCSTPWQCTCDEGWGGLFCDQDLNYCTHHSPCKNGATCSNSGQRSYTCTCRPGYTGVDCELELSECDSNPCRNGGSCKDQEDGYHCLCPPGYYGLHCEHSTLSCADSPCFNGGSCRERNQGANYACECPPNFTGSNCE
B1 displayed a Kd of 7.7 µM.
